How the values were obtained:
Dcc1 triple mutant = molecular target: T1, Dcc1 triple mutant (Saccharomyces cerevisiae, UniProt P25559 90-380, K364A;R367A;R380A); assay: EMSA; EMSA, 6% native gel in 0.5x TBE, 4 C, DNA 1 uM unless stated; binding buffer, salt and pH not stated (protein storage 10 mM Tris pH 7.5, 150 mM NaCl, 0.5 mM TCEP for the complex); settings: protein: recombinant
T1 sequence: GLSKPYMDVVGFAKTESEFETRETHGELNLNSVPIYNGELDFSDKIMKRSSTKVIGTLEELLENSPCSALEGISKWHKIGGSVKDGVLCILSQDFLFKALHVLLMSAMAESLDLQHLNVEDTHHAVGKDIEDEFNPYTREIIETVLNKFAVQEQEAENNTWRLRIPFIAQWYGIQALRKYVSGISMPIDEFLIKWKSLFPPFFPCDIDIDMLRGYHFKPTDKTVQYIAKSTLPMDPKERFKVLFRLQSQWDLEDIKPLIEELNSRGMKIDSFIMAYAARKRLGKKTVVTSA

Dcc1 dWH3 = molecular target: T2, Dcc1 dWH3 (Saccharomyces cerevisiae, UniProt P25559 90-318, del319-380); assay: EMSA; also none at reduced DNA, overexposed gel; EMSA, 6% native gel in 0.5x TBE, 4 C, DNA 1 uM unless stated; binding buffer, salt and pH not stated (protein storage 10 mM Tris pH 7.5, 150 mM NaCl, 0.5 mM TCEP for the complex); settings: protein: recombinant; label: 5' 6-FAM on sense strand
T2 sequence: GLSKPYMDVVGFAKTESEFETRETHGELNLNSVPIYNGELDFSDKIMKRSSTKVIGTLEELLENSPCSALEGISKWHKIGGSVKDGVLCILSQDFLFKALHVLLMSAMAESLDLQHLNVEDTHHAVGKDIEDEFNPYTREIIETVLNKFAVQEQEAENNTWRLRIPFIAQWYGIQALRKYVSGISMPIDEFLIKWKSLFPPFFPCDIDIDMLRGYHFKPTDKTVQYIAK

## TTTTTTTTTTTTTTTTTTTTTTTTT (ssDNA) [25-mer oligo d(T)]
Dcc1 triple mutant; label: 5' 6-FAM
  binding result: no binding

B1: 22-mer dsDNA (dsDNA)
DNA 1: TCTCCACAGGAAACGGAGGGGT
DNA 2: ACCCCTCCGTTTCCTGTGGAGA
Dcc1 dWH3
  binding result: no binding
Dcc1 triple mutant; label: 5' 6-FAM on sense strand
  binding result: no binding
